One block for each substance: values may come before it.
Legend:
[1] = target: Tau (endogenous, primary neurons) (UniProt P19332); experiment: proximity ligation assay, high-content screen; conditions: reference: DMSO-treated neurons; sites T348
[2] = target: Tau (endogenous, rat primary hippocampal neurons) (rat (endogenous in primary hippocampal neurons)) (UniProt P19332); experiment: proximity ligation; PLA in fixed rat primary hippocampal neuronal cultures (DIV7, 14, 21; lentiviral shBIN1 or overexpression at DIV8, read at DIV14; compound screen incl. Cyclosporin A and U0126 at DIV21); primary antibodies BIN1-99D (mouse) and Tau (rabbit); PLA volume or PLA:Tau ratio
Chain of Tau (endogenous, rat primary hippocampal neurons) (rat (endogenous in primary hippocampal neurons)) (P19332 other isoform, or with tags, fused parts or gaps): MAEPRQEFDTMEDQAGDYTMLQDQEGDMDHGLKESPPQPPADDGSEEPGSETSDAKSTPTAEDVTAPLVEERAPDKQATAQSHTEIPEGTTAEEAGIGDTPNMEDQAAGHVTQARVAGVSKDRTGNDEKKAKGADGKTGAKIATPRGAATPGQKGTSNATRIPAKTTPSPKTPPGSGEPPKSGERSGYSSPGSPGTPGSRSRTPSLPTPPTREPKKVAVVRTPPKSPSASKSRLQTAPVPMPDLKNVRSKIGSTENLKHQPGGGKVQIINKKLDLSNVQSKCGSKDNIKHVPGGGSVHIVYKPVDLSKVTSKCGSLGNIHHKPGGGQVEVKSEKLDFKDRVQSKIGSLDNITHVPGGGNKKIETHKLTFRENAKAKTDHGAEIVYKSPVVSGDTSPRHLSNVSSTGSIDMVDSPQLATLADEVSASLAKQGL

[3] = target: BIN1 (endogenous, primary neurons) (UniProt O08839); experiment: proximity ligation assay, high-content screen; conditions: reference: DMSO-treated neurons; sites T231

Chain of BIN1iso1 phosphomimetic T348E, overexpressed in primary neurons (O08539 whole entry, stated change not applied): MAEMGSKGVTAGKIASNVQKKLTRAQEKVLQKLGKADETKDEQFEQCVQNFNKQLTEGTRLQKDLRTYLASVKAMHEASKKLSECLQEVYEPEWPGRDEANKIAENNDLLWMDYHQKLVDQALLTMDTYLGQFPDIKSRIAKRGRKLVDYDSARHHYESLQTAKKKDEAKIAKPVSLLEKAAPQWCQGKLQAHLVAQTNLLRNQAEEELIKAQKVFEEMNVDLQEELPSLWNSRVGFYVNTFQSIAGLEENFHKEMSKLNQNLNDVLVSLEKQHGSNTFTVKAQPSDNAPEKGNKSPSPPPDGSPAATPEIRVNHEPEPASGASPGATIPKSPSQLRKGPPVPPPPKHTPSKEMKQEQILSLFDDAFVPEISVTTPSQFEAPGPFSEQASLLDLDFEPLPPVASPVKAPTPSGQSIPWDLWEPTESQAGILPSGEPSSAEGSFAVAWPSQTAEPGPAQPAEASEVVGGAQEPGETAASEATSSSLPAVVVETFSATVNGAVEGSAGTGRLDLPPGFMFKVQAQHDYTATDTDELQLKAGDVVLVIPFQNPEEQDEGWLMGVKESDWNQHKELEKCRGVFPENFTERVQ

other: percent increase of PLA:Tau ratio [1]: 42.6%
Substance: BIN1 (endogenous, primary neurons) (from UniProt O08839) Cyclosporin A-treated neurons (calcineurin inhibitor)

fold PLA volume against BIN1iso1 (after normalization with BIN1 immunofluorescence) [2]: 2.1 fold
Substance: BIN1iso1 phosphomimetic T348E, overexpressed in primary neurons (from UniProt O08539-1 1-588) (natural protein)

other: percent decrease of PLA:Tau ratio [3]: 36.2%
Substance: Tau (endogenous, primary neurons) (from UniProt P19332) U0126-treated neurons (MEK inhibitor)

From article PMC6778065
